Where “and” joins values, the source holds several entries; their conditions need not be identical. Equal entries are not always repeated.
What was measured:
Conditions in all cases: remark: other sources report otherwise
[1] = molecular target: T1, human arachidonate 12S-Lipoxygenase (12-LOX) (human), P18054; assay: SEC
T1 chain: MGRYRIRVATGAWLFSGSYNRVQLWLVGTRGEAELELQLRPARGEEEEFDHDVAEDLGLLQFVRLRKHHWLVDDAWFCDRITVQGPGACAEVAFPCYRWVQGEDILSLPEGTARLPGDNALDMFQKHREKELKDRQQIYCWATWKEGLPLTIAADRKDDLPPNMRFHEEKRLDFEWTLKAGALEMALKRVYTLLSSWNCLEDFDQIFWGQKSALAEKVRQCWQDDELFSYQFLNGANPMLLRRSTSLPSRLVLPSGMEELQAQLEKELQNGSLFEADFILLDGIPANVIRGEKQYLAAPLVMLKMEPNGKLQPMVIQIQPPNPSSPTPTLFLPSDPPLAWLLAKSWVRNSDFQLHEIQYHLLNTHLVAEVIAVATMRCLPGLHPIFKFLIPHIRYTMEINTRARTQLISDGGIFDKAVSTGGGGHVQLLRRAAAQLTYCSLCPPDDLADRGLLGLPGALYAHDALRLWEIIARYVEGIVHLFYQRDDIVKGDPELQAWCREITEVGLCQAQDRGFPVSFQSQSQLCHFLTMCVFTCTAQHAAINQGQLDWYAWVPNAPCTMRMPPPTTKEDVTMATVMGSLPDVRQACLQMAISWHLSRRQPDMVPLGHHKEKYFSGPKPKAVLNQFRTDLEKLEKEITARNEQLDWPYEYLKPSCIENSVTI

[2] = molecular target: T1, human arachidonate 12S-Lipoxygenase …; assay: cryo-EM structure
[3] = molecular target: T1, human arachidonate 12S-Lipoxygenase …; assay: cryo-EM structure
[4] = molecular target: T1, human arachidonate 12S-Lipoxygenase …; assay: cryo-EM structure

stoichiometry N [1]: 2 and 4
stoichiometry N [2]: 2 and 4 and 6
stoichiometry N [3]: 4
stoichiometry N [4]: 4
B1: human arachidonate 12S-Lipoxygenase (12-LOX), P18054 1-663 (enzyme)
chain: T1 chain

From article doi:10.1101/2023.03.10.532002
